{"source": "patent US20020142429", "proteins": {"B1": {"name": "rabbit reticulocyte eEF-2 kinase (protein)", "chain": "ADEDLIFRLEGLGGHQSSQTGHDGDSDADSDEEEGYFICPITDDPQSNQNVNSKINNYYSNLTKSERYGSSGSPASSFHFKEAWKHAIEKAKHMPDPWAEFHLEDIATECATRHRYNAVTGEWLQDEVLIKMASQPFGRGAMRECFRTKKLSNFLHAQQWKGASNYVAKRYIESVDRDVYFEDVRLQMEAKLWGEEYNRHKPPKQVDIMQMCIIELTERPGKPLFHLEHYIEGKYIKYNSNSGFVRDDNIRLTPQAFSHFTFERSGHQLIVVDIQGVGDLYTDPQIHTETGTDFGDGNLGVRGMALFFYSHACNRICKSMGLAPFDLSPREQDAVNQNTKLLQSAKTILRGTEEKCGSPRVRTLSGSRPPLLLRLSENSGDENMSDVTFDSLPSSPSSATPHSQKLDHLHWPVFSDLDNMAAREQDHLDNQRDSENSGDSGYPSEKRSELDDPEPREHGHSNGNRRCESDEDSLGSSGRVCVEKWNLLNPSRLHLPRASAVALEVQRLNALDLERKIGKSVLGKVHLAMVRYHEGGRFCDRDEEWDRESAVFHLEHAADLGELEAIVGLGLMYSQLPHHILADVSLKDTKENKTKGFDYLLKAAEAGDRQSMILVARAFDTGQNLSPERSRDWQEALHWYNSALEMTDCDEGGEYDGVQDEPRYTLLAREAEMLFTGGCGLDKDPQRSGDLYTQAAEAAMEAMKGRLANQYYQKAEEAWAQMEE"}}, "key": {"[1]": {"target": "Dictyostelium myosin (myosin heavy chains), P08799", "sequence (P08799 whole entry)": "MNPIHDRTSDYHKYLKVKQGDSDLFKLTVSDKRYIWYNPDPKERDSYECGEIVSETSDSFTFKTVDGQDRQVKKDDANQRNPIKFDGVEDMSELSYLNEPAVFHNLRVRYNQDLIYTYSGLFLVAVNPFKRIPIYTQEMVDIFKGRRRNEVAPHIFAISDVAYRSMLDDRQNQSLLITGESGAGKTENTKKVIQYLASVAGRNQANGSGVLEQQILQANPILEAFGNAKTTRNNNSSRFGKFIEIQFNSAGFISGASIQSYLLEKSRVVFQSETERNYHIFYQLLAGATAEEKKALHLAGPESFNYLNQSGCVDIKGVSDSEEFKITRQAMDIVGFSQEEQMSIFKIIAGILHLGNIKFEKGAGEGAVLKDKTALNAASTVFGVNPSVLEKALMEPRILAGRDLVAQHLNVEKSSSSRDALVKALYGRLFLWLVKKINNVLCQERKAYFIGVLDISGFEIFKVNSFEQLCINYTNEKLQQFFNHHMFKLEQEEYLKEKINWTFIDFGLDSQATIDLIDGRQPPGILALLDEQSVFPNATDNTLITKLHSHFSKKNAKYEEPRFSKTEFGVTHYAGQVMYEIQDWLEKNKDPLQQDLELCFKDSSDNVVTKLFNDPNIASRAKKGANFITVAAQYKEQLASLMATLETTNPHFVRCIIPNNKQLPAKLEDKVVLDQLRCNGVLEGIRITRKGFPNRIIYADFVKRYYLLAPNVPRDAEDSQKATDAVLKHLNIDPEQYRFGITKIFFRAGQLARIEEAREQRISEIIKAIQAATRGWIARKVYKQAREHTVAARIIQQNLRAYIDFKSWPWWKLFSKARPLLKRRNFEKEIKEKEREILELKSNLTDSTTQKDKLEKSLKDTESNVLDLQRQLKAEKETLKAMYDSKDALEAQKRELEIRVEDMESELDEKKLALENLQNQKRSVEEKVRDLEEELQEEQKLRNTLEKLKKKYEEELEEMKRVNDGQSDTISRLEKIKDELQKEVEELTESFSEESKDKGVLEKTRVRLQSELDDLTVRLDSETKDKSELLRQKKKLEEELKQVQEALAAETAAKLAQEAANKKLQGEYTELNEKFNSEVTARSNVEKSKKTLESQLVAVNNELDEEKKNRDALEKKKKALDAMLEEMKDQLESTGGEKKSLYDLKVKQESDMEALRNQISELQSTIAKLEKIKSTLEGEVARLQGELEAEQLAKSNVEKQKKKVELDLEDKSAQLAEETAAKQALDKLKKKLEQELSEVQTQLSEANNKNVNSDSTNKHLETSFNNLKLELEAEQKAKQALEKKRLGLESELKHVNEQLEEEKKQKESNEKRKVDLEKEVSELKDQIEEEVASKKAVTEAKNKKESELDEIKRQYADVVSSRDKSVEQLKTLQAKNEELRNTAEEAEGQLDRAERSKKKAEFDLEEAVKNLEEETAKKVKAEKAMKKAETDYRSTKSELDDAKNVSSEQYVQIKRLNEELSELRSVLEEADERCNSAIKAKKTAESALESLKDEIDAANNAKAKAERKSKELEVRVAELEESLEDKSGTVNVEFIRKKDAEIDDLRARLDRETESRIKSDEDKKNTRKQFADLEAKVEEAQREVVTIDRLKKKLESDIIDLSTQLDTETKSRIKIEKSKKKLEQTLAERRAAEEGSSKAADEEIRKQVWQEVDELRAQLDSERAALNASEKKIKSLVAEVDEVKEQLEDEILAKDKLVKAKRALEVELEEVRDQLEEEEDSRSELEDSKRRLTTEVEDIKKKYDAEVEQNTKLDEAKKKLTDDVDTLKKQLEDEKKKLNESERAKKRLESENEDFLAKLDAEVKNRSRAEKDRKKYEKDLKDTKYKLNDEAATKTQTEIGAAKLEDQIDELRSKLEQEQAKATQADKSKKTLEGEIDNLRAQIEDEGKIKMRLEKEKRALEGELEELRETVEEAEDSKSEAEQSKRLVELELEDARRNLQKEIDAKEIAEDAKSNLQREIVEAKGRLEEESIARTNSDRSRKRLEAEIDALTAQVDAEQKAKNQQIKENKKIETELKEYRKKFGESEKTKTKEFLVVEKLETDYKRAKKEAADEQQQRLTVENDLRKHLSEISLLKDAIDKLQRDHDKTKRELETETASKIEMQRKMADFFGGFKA"}, "[2]": {"target": "rabbit reticulocyte eEF-2, P55823"}}, "data": [{"protein": "B1", "values": [{"measurement": "phosphorylation assay (substrate specificity), 10 min", "setting": "[1]", "result": "rabbit eEF-2 kinase cannot use myosin heavy chains as a substrate"}, {"measurement": "phosphorylation assay (substrate specificity), 10 min", "setting": "[2]", "result": "each of these kinases is specific for their respective substrates"}]}]}
